Results from publication PMC5310709.
Read-outs that look alike come from different tables or passages of the source.

Key:
Assay in all cases: cross-linking
[1] = target: Z protein with N-epsilon-fluoroacetyllysine at residue 24, fused to maltose binding protein
[2] = target: Z protein with N-epsilon-fluoroacetyllysine at residue 24, fused to maltose binding protein; remark: listed apart in the source
[3] = target: Z protein with N-epsilon-fluoroacetyllysine at residue 6, fused to maltose binding protein
[4] = target: Z protein with N-epsilon-fluoroacetyllysine at residue 6, fused to maltose binding protein; remark: listed apart in the source
[5] = target: Z protein with Cys at residue 6, fused to maltose binding protein
[6] = target: Z protein with Cys at residue 6, fused to maltose binding protein; remark: listed apart in the source

Zspa Affibody (Afb) with Cys at position 7 (designed binder)
crosslinking yield [1]: 12% | crosslinking yield [2]: 34%

Zspa Affibody (Afb) with Cys at position 36 (designed binder)
crosslinking yield [3]: 24% | crosslinking yield [4]: 64%

Zspa Affibody (Afb) with N-epsilon-fluoroacetyllysine at position 36 (designed binder)
crosslinking yield [5]: 33% | crosslinking efficiency [6]: 88%
